# In patent US20140154817A1 (WALTER AND ELIZA HALL INSTITUTE OF MEDICAL RESEARCH, published 2014):
# Bridge positions count the residues as written; N and C are the ends. Ends that are not written are not given here. * marks the point of attachment. Biotin = O=C1N[C@H]2[C@H](CS[C@H]2CCCCC(=O)*)N1
# B1: IR485 construct of human insulin receptor (receptor)
# chain: HLYPGEVCPGMDIRNNLTRLHELENCSVIEGHLQILLMFKTRPEDFRDLSFPKLIMITDYLLLFRVYGLESLKDLFPNLTVIRGSRLFFNYALVIFEMVHLKELGLYNLMNITRGSVRIEKNNELCYLATIDWSRILDSVEDNHIVLNKDDNEECGDICPGTAKGKTNCPATVINGQFVERCWTHSHCQKVCPTICKSHGCTAEGLCCHSECLGNCSQPDDPTKCVACRNFYLDGRCVETCPPPYYHFQDWRCVNFSFCQDLHHKCKNSRRQGCHQYVIHNNKCIPECPSGYTMNSSNLLCTPCLGPCPKVCHLLEGEKTIDSVTSAQELRGCTVINGSLIINIRGGNNLAAELEANLGLIEEISGYLKIRRSYALVSLSFFRKLRLIRGETLEIGNYSFYALDNQNLRQLWDWSKHNLTTTQGKLFFHYNPKLCLSEIHKMEEVSGTKGRQERNDIALKTNGDKASCENELLKFSYIRTSFDKISDDDDKEQKLISEEDLN
# notes: The tag was not removed for ITC; Expressed in Lec8 mutant CHO cells; also called insulin mini-receptor IR485; first three domains of IR (L1-CR-L2)
# Experiments:
# [1] = molecular target: T1, Zinc-free porcine insulin (porcine, UniProt P01315 88-108; P01315 25-54); assay: ITC, 25 °C, IR αCT peptide 200 µM titrated into ZFP-insulin 20 µM
# T1 construct: mature; Made zinc-free by dialysis against 0.1% acetic acid and lyophilisation; also called ZFP-insulin
# Procedure: (§1) ITC experiments were performed using a VP-ITC isothermal titration calorimeter (MicroCal Inc., USA) with the calorimeter cell held at 25° C. All samples were degassed prior to injection or placement into the cell, and the instrument was temperature equilibrated prior to the start of the injections. In all experiments the volume of sample placed in the cell was 1.4 ml and the titrant was injected in 7 μl volumes over 14 s at 3 min intervals, with the total number of injections being 40. The sample contents were stirred at a speed of 310 rpm over the duration of the titration. […] Data were analyzed using the instrument's software incorporated within the Origin 7 software (OriginLab, USA) and in all cases fitted as a single-site interaction using the methodologies outlined in the instrument's manual.
# [2] = molecular target: B1; assay: ITC, 25 °C, peptide titrated into IR485, single-site fit, mean of three
# Procedure: as §1
# [3] = molecular target: B1; assay: ITC, 25 °C, S519N20 50 µM titrated into IR485 5 µM
# Procedure: as §1
# [4] = molecular target: B1; assay: ITC, 25 °C, peptide titrated into IR485
# [5] = molecular target: B1; assay: ITC, about 25 °C, peptide titrated into IR485
# Procedure: (§2) The insulin mini-receptor IR485 construct was produced and purified as previously described (Lou et al., 2006), omitting the final ion-exchange chromatography step. Isothermal titration calorimetry (ITC) experiments were performed using a VP-ITC isothermal titration calorimeter (MicroCal Inc., USA) with the calorimeter cell held at about 25° C. The ITC cell contained insulin mini-receptor IR485 prepared at about 10 μM concentration in Tris-buffered saline plus azide (TBSA; about 24.8 mM Tris-HCl (pH 8.0), 137 mM NaCl, 2.7 mM KCl, and 0.02% sodium azide), and the syringe contained the peptide prepared at about 60 μM concentration in TBSA. All samples were degassed prior to injection or placement into the cell, and the instrument was temperature equilibrated prior to the start of the injections.
# (§3) In all experiments the volume of the insulin mini-receptor IR485 sample placed in the cell was about 1.4 ml and the titrant was injected in about 7 μl volumes over 14 s at 3 min intervals, with the total number of injections being 40. The sample contents were stirred at a speed of about 310 rpm over the duration of the titration. All titrants were first injected into a solution of TBSA alone in order ascertain the heat of dilution, which was then subtracted from the data of interest as appropriate. Each experiment was performed three times, except for that employing the native peptide, which was performed twice. Data were analyzed using the instrument's software incorporated within the Origin 7 software (OriginLab, USA) and in all cases fitted as a single-site interaction using the methodologies outlined in the instrument's manual.
# [6] = molecular target: B1; assay: ITC, about 25 °C, peptide about 60 µM titrated into IR485 about 10 µM
# Procedure: as §2, §3
# [7] = molecular target: B1; assay: ITC, mutant αCT peptides 698-719 titrated into IR485
# Procedure: as §2
# In all experiments the volume of the insulin mini-receptor IR485 sample placed in the cell was about 1.4 ml and the titrant was injected in about 7 μl volumes over 14 s at 3 min intervals, with the total number of injections being 40. The sample contents were stirred at a speed of about 310 rpm over the duration of the titration. […] Data were analyzed using the instrument's software incorporated within the Origin 7 software (OriginLab, USA) and in all cases fitted as a single-site interaction using the methodologies outlined in the instrument's manual.
# Human IGF-I [8] = molecular target: T2, Human IGF-I (human, UniProt P05019 49-118); assay: ITC, 25 °C, IGF-1R αCT peptide 200 µM titrated into IGF-I 20 µM
# T2 construct: mature
# Procedure: as §1
# [9] = molecular target: B1; assay: ITC, 25 °C, S519C16 titrated into IR485 pre-mixed with a 10-fold molar ratio of IR αCT peptide (competitor)
# Procedure: as §1
# [10] = molecular target: B1; assay: ITC, 25 °C, S519C16 titrated into IR485 pre-mixed with a 10-fold molar ratio of IR αCT peptide (competitor); apparent Kd; IR485 in the presence of a 10-fold molar ratio of IR αCT peptide
# Procedure: as §1
# Human IGF-I [11] = molecular target: T2, Human IGF-I; assay: ITC, 25 °C, IGF-I titrated into IR485 pre-mixed with 10-fold IGF-1R αCT peptide
# Procedure: as §1
# [12] = molecular target: T1, Zinc-free porcine insulin; assay: ITC, 25 °C, hormone titrated into IR485 pre-mixed with 10-fold IGF-1R αCT peptide
# Procedure: as §1
# Human IGF-I [13] = molecular target: T2, Human IGF-I; assay: ITC, 25 °C, IGF-I 100 µM titrated into IR485 10 µM
# Procedure: as §1
# [14] = molecular target: T1, Zinc-free porcine insulin; assay: ITC, 25 °C, ZFP-insulin 50 µM titrated into IR485 5 µM
# Procedure: as §1
# T1 sequence (P01315 88-108 limits assumed, chain 1 of 2): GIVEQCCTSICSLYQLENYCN
# T1 sequence (P01315 25-54 limits assumed, chain 2 of 2): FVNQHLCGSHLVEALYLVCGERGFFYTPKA
Binder,TΔS° [5] [kJ/mol],ΔG° [5] [kJ/mol],ΔH° [5] [kJ/mol],Kd [6] [nM],other results
TFEDYLHNVVFVPRPS (Mature IR-A numbering; also called IR αCT; IR-αCT) [IR classical α-chain C-terminal peptide (residues 704-719)],,,,,Kd [1]: > 1 mM; Kd [2]: 3.9 µM
TFEDYLHNVVAVPRPS (also called IR αCT.714A; IR-αCT.714A) [F714A mutant of the IR classical αCT peptide],,,,,Kd [2]: 6.5 µM
"SLEEEWAQVECEVYGRGCPS (disulfide 11-18 (inferred), Synthetic peptide, AusPep, >90% purity; also called Site 2 peptide, the 20 N-terminal residues of S519) [S519N20 peptide]",,,,,Kd [3]: > 1 mM
"SLEEEWAQVECEVYGRGCPSGSLDESFYDWFERQLG (disulfide 11-18 (inferred), 36-residue synthetic peptide, Activotec, >85% purity; also called insulin mimetic peptide S519) [S519 peptide]",,,,,-TΔS^0 [4]: 24 kJ/mol; Kd [4]: 11 nM; ΔH^0 [4]: -69 kJ/mol
"Biotin-ESSFRKTFEDYLHNVVFVPRPS (Genscript, >75% purity; also called wt; native peptide) [N-terminally biotinylated IR αCT peptide 698-719, wild type]",-14,-33.5,-48,1340,
"Biotin-ESSFRKWFEDYLHNVVFVPRPS [N-terminally biotinylated IR αCT peptide 698-719, T704W]",11,-38.2,-26,201,
"Biotin-ESSFRKYFEDYLHNVVFVPRPS [N-terminally biotinylated IR αCT peptide 698-719, T704Y]",-11,-35,-46,740,
"Biotin-ESSFYKTFEDYLHNVVFVPRPS [N-terminally biotinylated IR αCT peptide 698-719, R702Y]",-12,-37.7,-50,249,
"Biotin-ESSFYKWFEDYLHNVVFVPRPS [N-terminally biotinylated IR αCT peptide 698-719, R702Y/T704W]",-5,-44.2,-49,18,fold increase in affinity against the wild type peptide [7]: ≤ 100 fold
"Biotin-ESSFWKTFEDYLHNVVFVPRPS [N-terminally biotinylated IR αCT peptide 698-719, R702W]",-3,-37.2,-35,309,
VFENFLHNSIFVPRPE (Mature IGF-1R numbering; also called IGF-1R αCT; IGF1R-αCT) [IGF-1R classical α-chain C-terminal peptide (residues 691-706)],,,,,Kd (Human IGF-I [8]): > 1 mM; Kd [2]: 17.6 µM
"GSLDESFYDWFERQLG (Synthetic peptide, AusPep, >90% purity; also called Site 1 peptide, the 16 C-terminal residues of S519) [S519C16 peptide]",,,,,-TΔS^0 [4]: 12 kJ/mol; Kd [4]: 2.6 nM; ΔH^0 [4]: -61 kJ/mol; -TΔS^0 [9]: -11 kJ/mol; ΔH^0 [9]: -33 kJ/mol; Kd [10]: 16 nM
"IR485 pre-complexed with a 10-fold molar ratio of IGF-1R classical αCT peptide (other, Non-covalent receptor fragment and peptide mixture in the ITC cell; also called IR485 + (10 × IGF1R-αCT)) HLYPGEVCPGMDIRNNLTRLHELENCSVIEGHLQILLMFKTRPEDFRDLSFPKLIMITDYLLLFRVYGLESLKDLFPNLTVIRGSRLFFNYALVIFEMVHLKELGLYNLMNITRGSVRIEKNNELCYLATIDWSRILDSVEDNHIVLNKDDNEECGDICPGTAKGKTNCPATVINGQFVERCWTHSHCQKVCPTICKSHGCTAEGLCCHSECLGNCSQPDDPTKCVACRNFYLDGRCVETCPPPYYHFQDWRCVNFSFCQDLHHKCKNSRRQGCHQYVIHNNKCIPECPSGYTMNSSNLLCTPCLGPCPKVCHLLEGEKTIDSVTSAQELRGCTVINGSLIINIRGGNNLAAELEANLGLIEEISGYLKIRRSYALVSLSFFRKLRLIRGETLEIGNYSFYALDNQNLRQLWDWSKHNLTTTQGKLFFHYNPKLCLSEIHKMEEVSGTKGRQERNDIALKTNGDKASCENELLKFSYIRTSFDKISDDDDKEQKLISEEDLN peptide: VFENFLHNSIFVPRPE",,,,,Kd (Human IGF-I [11]): 22 nM; Kd [12]: 5.7 nM
B1,,,,,Kd (Human IGF-I [13]): > 1 mM; Kd [14]: > 1 mM
